Results reported in patent publication CN118459575A (CHENZHOU NO 1 PEOPLES HOSPITAL, dated 2024).

Legend:
[1] = biological target: SARS-CoV-2 Gamma突变株 S蛋白 (假病毒) (SARS-CoV-2 Gamma); assay: cell-based or functional assay
[2] = biological target: SARS-CoV-2 Delta突变株 S蛋白 (假病毒) (SARS-CoV-2 Delta); assay: cell-based or functional assay
[3] = biological target: SARS-CoV S1蛋白 (Sino Biological, 货号 40150-V08B1) (SARS-CoV, UniProt P59594 14-667); assay: ELISA, S1 coated at 2 μg/mL, antibody titrated
[4] = biological target: T1, SARS-CoV-2 S1蛋白 (Sino Biological, 货号 40591-V08H) (SARS-CoV-2, UniProt P0DTC2 16-685); assay: ELISA, S1 coated at 2 μg/mL, antibody at 1 μg/mL
T1 construct: domain: S1

[5] = biological target: T2, SARS-CoV-2 S2蛋白 (Sino Biological, 货号 40590-V08B) (SARS-CoV-2, UniProt P0DTC2 686-1213); assay: ELISA, S2 coated at 2 μg/mL, antibody at 1 μg/mL
T2 construct: domain: S2

[6] = biological target: T3, SARS-CoV-2-Hu-1 S蛋白 (Sino Biological, 货号 40589-V08B1) (SARS-CoV-2, UniProt P0DTC2 14-1213); assay: ELISA screen, S protein coated at 2 μg/mL, antibody at 1 μg/mL
T3 construct: extracellular domain

B1: 广谱抗sarbecovirus和/或新冠突变株的抗体 SCM12-61 (antibody, V domains shown)
VH: QVQLVESGGGVVQPGRSLRLSCATSGFTFRSSAMHWVRQAPGKGLEWVAVIWFDGIKKYYTDSVKGRFTISRDNSKNTLYLQMNSLGAEDTAVYYCARDRAREFYPGPHCGDECYSSDAFDVWGQGTTVIVSS
VL: DIQMTQSPSSLSASVGDRVTITCRASQDINTYLNWYQQKSGRAPKFLIYAASSLQSGIPSRFSGSGSGTDFTLTIDSLQPEDFATYYCQQSHSIPYTFGQGTKLEIKR
Q: Which results are given for B1?
A: 假病毒中和 IC50 [1]: 0.00813 µg/mL; 假病毒中和 IC50 [2]: 0.0248 µg/mL; binding result [3]: binds; binding result [4]: binds; binding result [5]: no binding (tested: 1μg/mL); binding result [6]: binds
